Measured values reported in article PMC9452904.
One block for each substance: values may come before it.

Assays:
[1] = target: ribosome-nascent chain complex with the HA-tagged GatY(1-153) nascent chain on the TMR-labeled Halo-S2 ribosome (E. coli | not stated) (UniProt P0C8J6); test: single-molecule total internal reflection fluorescence microscopy (TIRFM); RNCs held on a PEG/biotin-PEG slide through neutravidin and anti-HA biotin; 50 nM Alexa647-labeled TF, 50 nM TMR-labeled Halo-S2 ribosome; 10 frames/s for 150 s; residence times fitted
[2] = target: ribosome-nascent chain complex with the HA-tagged GatY(1-284) nascent chain on the TMR-labeled Halo-S2 ribosome (E. coli | not stated) (UniProt P0C8J6); test: as above
[3] = target: Trigger factor (Escherichia coli) (UniProt P0A850); conditions: cited from earlier work
[4] = target: ribosome-nascent chain complex with the HA-tagged GatY(1-284) nascent chain (E. coli) (UniProt P0C8J6); test: fluorescence correlation spectroscopy (FCS); endpoint: ~2 ug truncated mRNA and 100 nM labeled TF in PUREfrex solution, 5-15 min at 37 C, then measured; two-component fit with the fast component fixed to free TF
[5] = target: ribosome-nascent chain complex with the HA-tagged GatY(1-153) nascent chain (E. coli) (UniProt P0C8J6); test: as above
[6] = target: vacant ribosome; test: fluorescence correlation spectroscopy (FCS); 100 nM Alexa488-labeled TF with increasing ribosome concentrations in HKM buffer (25 mM Hepes-KOH pH 7.4, 100 mM KCl, 5 mM MgCl2); ratio of ribosome-bound TF from a two-component fit, Kd from a quadratic fit

half-life of the residence time (fast component) [1]: 2.7 s | half-life of the residence time (slow fraction) [2]: 9.8 s
Substance: Alexa647-labeled TF-R14C (from UniProt P0A850 1-432) (natural protein)

Substance: Trigger factor (from UniProt P0A850)
Kd [3]: 1500 nM

percent of TF in the slow component [4]: 90% | percent of TF in the slow component [5]: 90% | Kd [6]: 2240 nM
Substance: Alexa488-labeled trigger factor TF-R14C (from UniProt P0A850 1-432) (natural protein)
